Entries after “also recorded” stand apart in the source; their conditions may differ. Peptide text beside a SMILES is read from it.
Assays:
[1] = Net charge of self-assembling peptides in solution; type: physicochemical; settings: for Net charge at pH 7.5: in solution at pH 7.5
Source text: Several exemplary self-assembling peptides described herein (Table 5; SEQ ID NO:21-40) were designed to have a net charge, positive or negative, when formulated at pH 7.5. In contrast, previously-described self-assembling peptides have a net zero charge at the same pH.

[2] = Viscosity determination at increasing shear rate (shear thinning); type: physicochemical; settings: 1% (w/v) peptide, pH 7.5
Experimental: Peptides formulated as aqueous solutions (200 μL), were placed between the plates of a rheometer (DHR-1, TA Instruments, 20 mm plates at a measuring geometry of 500 μm) and the viscosity was measured from 0.001 s^−1 to 100 s^−1 shear rate. Thixotropic Measurements
In some clinical applications, administration of pharmaceutical compositions comprising self-assembling peptides requires exposing the compositions to pressure and/or shear thinning (e.g., during injection through a syringe needle or transferred via a pump-based system). […] To determine the shear thinning properties of pharmaceutical compositions of the self-assembling peptides formulated at pH 7.5, formulations comprising varying ionic strengths were prepared using different concentrations of sodium chloride, and viscosity measured at increasing shear rates. Thixotropic properties of formulations were also determined as well as the storage modulus over time at specific frequencies and pressure.
FIGS. 6-8 show the experimentally determined viscosity of aqueous pharmaceutical compositions comprising either 1% (w/v) KLNL12 (SEQ ID NO:21), 1% (w/v) IQIK13 (SEQ ID NO:28), or 1% (w/v) NLEL12 (SEQ ID NO:33), at pH 7.5. FIGS. 9 and 10 show the experimentally determined viscosity of aqueous pharmaceutical compositions comprising either 1% KLNL12 (SEQ ID NO:21) or 1% NLEL12 (SEQ ID NO:33), and 0.9% NaCl (to mimic physiological conditions) at pH 7.5. […] That is, decreased viscosity with increasing sheer rate. This property may advantageously facilitate application and use of the pharmaceutical compositions (e.g., due to decreased viscosity while pumping) while maintaining a desirable viscosity at a site of application (e.g., where no sheer force is being applied).

pig stomach submucosa = assay: Submucosal injection in in vivo porcine model, stomach; settings: for Appearance of stomach mucosa / submucosal elevation after injection / submucosal elevation over time compared with saline and MucoUp: pH 7.5; for Appearance of stomach mucosa: 2 mL injected; for submucosal elevation after injection / submucosal elevation over time compared with saline and MucoUp: 2 mL of 0.1% (w/v) peptide, 0.9% NaCl, pig stomach
Experimental: An in vivo porcine animal model was used to perform endoscopic mucosal and submucosal dissections as described in Uraoka et al. (2009) Drug Des. Devel. Ther. 2:131-8, incorporated herein by reference. Briefly, 2 mL of select peptide formulations were injected in between the […] in stomach of a pig and the submucosa was dissected using electro-knife. The gross appearance of the injection site and of dissected submucosal tissues at the injection sites were analyzed. […] Therefore, an in vivo porcine model system was used to assess the ability of these compositions to induce submucosal elevation upon injection into gastrointestinal submucosa, and the degree of tissue damage. In this model, submucosal injections with liquid compositions were performed and the morphology of the site of injection analyzed. Submucosal injection with aqueous solutions is used during the excision of lesions from the gastrointestinal tract in order to facilitate removal of the lesion by providing a safety cushion during resection (see, e.g., Kim et al. (2013) World J. Gastroenterol. 19(20): 3069-76, incorporated herein by reference). Here, aqueous pharmaceutical compositions comprising three exemplary self-assembling peptides formulated at pH 7.5: KLNL12 (SEQ ID NO:21), NLKL12 (SEQ ID NO:23) or KIQI13 (SEQ ID NO:29), were compared to an aqueous pharmaceutical composition comprising the previously described RADA16 self-assembling peptide (formulated at pH 2.5), a 0.4% solution of sodium hyaluronate (MucoUp®, Boston Scientific Japan K.K., Tokyo, Japan), and saline, pH 7.5.

porcine esophagus mucosa = assay: Submucosal injection in in vivo porcine esophagus
Experimental: In another embodiment, mucosal aggregation visualized as white precipitate near the injection site was evaluated in an in vivo porcine esophagus.

[3] = Appearance (solubility) of aqueous compositions at pH 2.5 and pH 7.5; type: physicochemical
Experimental: To determine the solubility of exemplary self-assembling peptides in aqueous pharmaceutical compositions formulated at acidic and neutral pH, the appearance of the pharmaceutical compositions was assessed. Homogenous and transparent appearance reflects sufficient solubility of the peptides in solution and minimal hydrogel formation. […] The appearance of exemplary self-assembling peptides at pH 2.5 and pH 7.5 is shown below in Table 6 and FIG. 20.

[4] = Frequency sweep test (storage modulus) before and after exposure to DMEM; type: physicochemical; settings: pH 7.5; for increase of mechanical strength after exposure to DMEM: 0.15% (w/v); for rheological properties (mechanical strength) before and after exposure to DMEM: 1% (w/v) peptide
Experimental: Peptides formulated as aqueous solutions were placed between the plates of a rheometer (DHR-1, TA Instruments, 20 mm plates at a measuring geometry of 500 μm or 40 mm cone and plate at a measuring geometry of 2.0° of cone angle) and frequency stress sweep tests were performed at 0.1 Hz to 10 Hz of frequency with 0.1% of strain; measurements were performed after 2 minutes of relaxation time at 37° C. To do frequency sweep tests after exposure to Dulbecco's Modified Eagle Medium (DMEM), 10 mL of DMEM was added in chamber surrounding the plates, the sample in plates was submerged into the DMEM and the frequency test was performed as described after 20 minutes.
Rheological properties of aqueous pharmaceutical compositions comprising the exemplary self-assembling peptides KLNL12 (SEQ ID NO:21), KIQI13 (SEQ ID NO:29), or NLEL12 (SEQ ID NO:33) were determined by performing a frequency sweep test over storage modulus.
In some embodiments, peptides formulated as aqueous solutions, volume 700 μl, were placed between the plates of a rheometer (DHR-1, TA Instruments, 40 mm cone and plate at a measuring geometry of 2.0° of cone angle) and frequency sweep tests were performed at 0.1 Hz to 10 Hz of frequency with 0.1% of strain; measurements were performed after 2 minutes of relaxation time at 37° C. In some embodiments, frequency sweep tests were performed after exposure to Dulbecco's Modified Eagle Medium (DMEM), where 10 mL of DMEM was added in chamber surrounding the plates, the sample in plates was submerged into the DMEM and the frequency test was performed as described after 20 minutes.

[5] = porcine esophagus, compositions of Table 9

Q: With Ac-LKLNLKLNLKLN-NH2 [LKLN12] as the compound, how does the “Net charge at pH 7.5” value [1] read?
A: +3

Q: With Ac-KLNLKLNLKLNLK-NH2 [KLNL13] as the compound, how does the “Net charge at pH 7.5” value [1] read?
A: +4

Q: For Ac-KLNLKLNLKLNLKLNLK-NH2 [KLNL17], which “Net charge at pH 7.5” value [1] is on record?
A: +5

Q: With Ac-IQIKIQIKIQIK-NH2 [IQIK12] as the compound, how does the “Net charge at pH 7.5” value [1] read?
A: +3

Q: Which “Net charge at pH 7.5” value [1] does the source give for Ac-RANARANARANARANA-NH2 [RANA16] here?
A: +4

Q: With Ac-KVNVKVNVKVNV-NH2 [KVNV12] as the compound, how does the “Net charge at pH 7.5” value [1] read?
A: +3

Q: With Ac-IQIKIQIKIQIKI-NH2 [IQIK13] as the compound, how does the “Net charge at pH 7.5” value [1] read?
A: +3

Q: And the “viscosity in response to increasing shear rate” value [2]?
A: exhibit sheer thinning

Q: For Ac-IKIQIKIQIKIQI-NH2 [IKIQ13], which “Net charge at pH 7.5” value [1] is on record?
A: +3

Q: Which “Appearance of stomach mucosa” value (pig stomach submucosa; 0.1% (w/v) peptide with NaCl 0.9%) does the source give for CC[C@H](C)[C@H](NC(=O)[C@H](CCC(N)=O)NC(=O)[C@@H](NC(=O)[C@H](CCCCN)NC(=O)[C@@H](NC(=O)[C@H](CCC(N)=O)NC(=O)[C@@H](NC(=O)[C@H](CCCCN)NC(=O)[C@@H](NC(=O)[C@H](CCC(N)=O)NC(=O)[C@@H](NC(=O)[C@H](CCCCN)NC(C)=O)[C@@H](C)CC)[C@@H](C)CC)[C@@H](C)CC)[C@@H](C)CC)[C@@H](C)CC)C(N)=O [KIQI12, Ac-KIQIKIQIKIQI-NH2] (Ac-KIQIKIQIKIQI-NH2) here?
A: do not appear to alter submucosal tissue morphology; also recorded: Clear/transparent

Q: What about the “Appearance of stomach mucosa” value (porcine esophagus mucosa; porcine esophagus, 0.1% (w/v) peptide with NaCl 0.9%, pH 7.5) of the same compound?
A: cloudy/aggregation

Q: And the “mucosal aggregation at injection sites” value (porcine esophagus mucosa; [5])?
A: Mucosal aggregation was observed

Q: For Ac-INIKINIKINIKI-NH2 [INIK13], which “Net charge at pH 7.5” value [1] is on record?
A: +3

Q: Which “period after injection until mucosal aggregation” value (pig stomach submucosa; pig, in vivo, pH 2.5) does the source give for “Ac-RADARADARADARADA-NH2 [RADA16, reference compound]” here?
A: 10 to 15 min

Q: What about the “net charge as a function of pH” value ([1]; around neutral pH) of the same compound?
A: about 0

Q: What about the “Appearance at different pH: At pH 7.5” value [3] of the same compound?
A: precipitates; also recorded: phase separation and cloudy appearance

Q: And the “mucosal aggregation at injection sites” value (porcine esophagus mucosa; pig, in vivo)?
A: Mucosal aggregation was observed

Q: And the “Appearance of stomach mucosa” value (porcine esophagus mucosa; pig, in vivo, pH 2.5)?
A: cloudy/aggregation

Q: Which “Net charge at pH 7.5” value [1] does the source give for Ac-QIKIQIKIQIKIQ-NH2 [QIKI13] here?
A: +3

Q: What does the source list for CC(=O)N[C@@H](CCC(N)=O)C(=O)N[C@@H](CC(C)C)C(=O)N[C@@H](CCC(=O)O)C(=O)N[C@@H](CC(C)C)C(=O)N[C@@H](CCC(N)=O)C(=O)N[C@@H](CC(C)C)C(=O)N[C@@H](CCC(=O)O)C(=O)N[C@@H](CC(C)C)C(=O)N[C@@H](CCC(N)=O)C(=O)N[C@@H](CC(C)C)C(=O)N[C@@H](CCC(=O)O)C(=O)N[C@@H](CC(C)C)C(N)=O [QLEL12, Ac-QLELQLELQLEL-NH2] (Ac-QLELQLELQLEL-NH2)?
A: Appearance of stomach mucosa (pig stomach submucosa; 0.2% (w/v) peptide with NaCl 0.9%): no mucosal aggregation was observed; also recorded: do not appear to alter submucosal tissue morphology; also recorded: clear/transparent; rheological property versus peptide concentration ([4]; 0.1% to 0.3% (w/v), 0.9% NaCl): linear relationship; increase of mechanical strength after exposure to DMEM ([4]; 0.9% NaCl, frequency 0.1 Hz): 23 fold; increase of mechanical strength after exposure to DMEM ([4]; 0.9% NaCl, frequency 1 Hz): 20 fold; increase of mechanical strength after exposure to DMEM ([4]; 0.9% NaCl, frequency 10 Hz): 9 fold; Appearance of stomach mucosa (porcine esophagus mucosa; porcine esophagus, 0.2% (w/v) peptide with NaCl 0.9%, pH 7.5): clear/transparent; mucosal aggregation at injection sites (porcine esophagus mucosa; [5]): mucosal aggregation was not observed

Q: Which results are given for “Ac-KLDLKLDLKLDL-NH2 [KLDL12, reference compound]”?
A: Net charge at pH 7.5 [1]: 0; Net charge at pH 7.5 ([1]; listed as KLD12): about zero; Appearance at different pH: At pH 7.5 [3]: phase separation and cloudy appearance

Q: For Ac-LNLKLNLKLNLK-NH2 [LNLK12], which “Net charge at pH 7.5” value [1] is on record?
A: +3

Q: Which “Net charge at pH 7.5” value [1] does the source give for Ac-KLTLKLTLKLTL-NH2 [KLTL12] here?
A: +3

Q: For Ac-IEIKIEIKIEIKI-NH2 [IEIK13], which “Appearance at different pH: At pH 7.5” value [3] is on record?
A: phase separation and cloudy appearance

Q: Which “Net charge at pH 7.5” value [1] does the source give for Ac-KANAKANAKANA-NH2 [KANA12] here?
A: +3

Q: Which “submucosal elevation after injection” value (pig stomach submucosa) does the source give for Ac-KIQIKIQIKIQIK-NH2 [KIQI13] here?
A: resulted in submucosal elevation

Q: What about the “submucosal elevation over time compared with saline and MucoUp” value (pig stomach submucosa) of the same compound?
A: better submucosal elevation than saline and MucoUp®

Q: And the “Net charge at pH 7.5” value [1]?
A: +4

Q: And the “rheological properties (mechanical strength) before and after exposure to DMEM” value ([4]; 0.9% NaCl)?
A: increased after DMEM treatment

Q: What about the “rheological properties (mechanical strength) before and after exposure to DMEM” value [4] of the same compound?
A: increased after DMEM treatment

Q: With CC(=O)N[C@@H](CC(C)C)C(=O)N[C@@H](CCC(=O)O)C(=O)N[C@@H](CC(C)C)C(=O)N[C@@H](CCC(N)=O)C(=O)N[C@@H](CC(C)C)C(=O)N[C@@H](CCC(=O)O)C(=O)N[C@@H](CC(C)C)C(=O)N[C@@H](CCC(N)=O)C(=O)N[C@@H](CC(C)C)C(=O)N[C@@H](CCC(=O)O)C(=O)N[C@@H](CC(C)C)C(=O)N[C@@H](CCC(N)=O)C(N)=O [LELQ12, Ac-LELQLELQLELQ-NH2] (Ac-LELQLELQLELQ-NH2) as the compound, how does the “mucosal aggregation at injection sites” value (porcine esophagus mucosa; pig, in vivo) read?
A: mucosal aggregation was not observed

Q: What about the “Appearance of stomach mucosa” value (porcine esophagus mucosa; pig, in vivo, pH 7.5) of the same compound?
A: clear/transparent

Q: For Ac-NLDLNLDLNLDL-NH2 [NLDL12], which “Net charge at pH 7.5” value [1] is on record?
A: −3

Q: For Ac-NLKLNLKLNLKL-NH2 [NLKL12], which “submucosal elevation after injection” value (pig stomach submucosa) is on record?
A: resulted in submucosal elevation

Q: And the “submucosal elevation over time compared with saline and MucoUp” value (pig stomach submucosa)?
A: better submucosal elevation than saline and MucoUp®

Q: What about the “Net charge at pH 7.5” value [1] of the same compound?
A: +3

— patent US12611439B2, “Ionic self-assembling peptides” (3-D MATRIX, LTD., priority 2018, dated 2026)
